Measured values as given in patent publication US20240270846A1 (published 2024).
Residue numbers refer to the chain shown, from its start.

B1: CE115HA000 H chain altered form H35D (antibody, human IgG1, kappa, L234A L235A, N297A, name in Kabat numbering)
heavy: QVQLVESGGGVVQPGRSLRLSCAASGFTFSNAWMDWVRQAPGKGLEWVAQIKAKSNNYATYYAESVKGRFTISRDDSKNSLYLQMNSLKTEDTAVYYCRYVHYGAYYGVDAWGQGTTVTVSSASTKGPSVFPLAPSSKSTSGGTAALGCLVKDYFPEPVTVSWNSGALTSGVHTFPAVLQSSGLYSLSSVVTVPSSSLGTQTYICNVNHKPSNTKVDKKVEPKSCDKTHTCPPCPAPEAAGGPSVFLFPPKPKDTLMISRTPEVTCVVVDVSHEDPEVKFNWYVDGVEVHNAKTKPREEQYASTYRVVSVLTVLHQDWLNGKEYKCKVSNKALPAPIEKTISKAKGQPREPQVYTLPPSRCELTKNQVSLSCAVKGFYPSDIAVEWESNGQPENNYKTTPPVLDSDGSFFLVSKLTVDKSRWQQGNVFSCSVMHEALHNHYTQKSLSLSPDYKDDDDK
chain: EPKSSDKTHTCPPCPAPELLGGPSVFLFPPKPKDTLMISRTPEVTCVVVDVSHEDPEVKFNWYVDGVEVHNAKTKPREEQYNSTYRVVSVLTVLHQDWLNGKEYKCKVSNKALPAPIEKTISKAKGQPREPQVCTLPPSRDELTKNQVSLWCLVKGFYPSDIAVEWESNGQPENNYKTTPPVLDSDGSFFLYSKLTVDKSRWQQGNVFSCSVMHEALHNRYTQKSLSLSP
light: DIVMTQSPLSLPVTPGEPASISCRSSQSLVHSNRNTYLHWYQQKPGQAPRLLIYKVSNRFSGVPDRFSGSGSGTDFTLKISRVEAEDVGVYYCGQGTQVPYTFGQGTKLEIKRTVAAPSVFIFPPSDEQLKSGTASVVCLLNNFYPREAKVQWKVDNALQSGNSQESVTEQDSKDSTYSLSSTLTLSKADYEKHKVYACEVTHQGLSSPVTKSFNRGEC
notes: one-arm antibody
B2: CE115HA000 H chain altered form H35W (antibody, human IgG1, kappa, L234A L235A, N297A, name in Kabat numbering)
heavy: B1 heavy with D35W
chain: B1 chain
light: B1 light
notes: one-arm antibody
B3: CE115HA000 H chain altered form K52bA (antibody, human IgG1, kappa, L234A L235A, N297A, name in Kabat numbering)
heavy: B1 heavy with D35H, K54A
chain: B1 chain
light: B1 light
notes: one-arm antibody
B4: CE115HA000 H chain altered form H35N (antibody, human IgG1, kappa, L234A L235A, N297A, name in Kabat numbering)
heavy: B1 heavy with D35N
chain: B1 chain
light: B1 light
notes: one-arm antibody
B5: CE115HA000 H chain altered form K43Q (antibody, human IgG1, kappa, L234A L235A, N297A, name in Kabat numbering)
heavy: B1 heavy with D35H, K43Q
chain: B1 chain
light: B1 light
notes: one-arm antibody
B6: CE115HA000 H chain altered form H35T (antibody, human IgG1, kappa, L234A L235A, N297A, name in Kabat numbering)
heavy: B1 heavy with D35T
chain: B1 chain
light: B1 light
notes: one-arm antibody
B7: CE115HA000 H chain altered form K52E (antibody, human IgG1, kappa, L234A L235A, N297A, name in Kabat numbering)
heavy: B1 heavy with D35H, K52E
chain: B1 chain
light: B1 light
notes: one-arm antibody
B8: CE115HA000 H chain altered form K52W (antibody, human IgG1, kappa, L234A L235A, N297A, name in Kabat numbering)
heavy: B1 heavy with D35H, K52W
chain: B1 chain
light: B1 light
notes: one-arm antibody
B9: CE115HA000 H chain altered form K43E (antibody, human IgG1, kappa, L234A L235A, N297A, name in Kabat numbering)
heavy: B1 heavy with D35H, K43E
chain: B1 chain
light: B1 light
notes: one-arm antibody
B10: CE115HA000 H chain altered form K52S (antibody, human IgG1, kappa, L234A L235A, N297A, name in Kabat numbering)
heavy: B1 heavy with D35H, K52S
chain: B1 chain
light: B1 light
notes: one-arm antibody
B11: CE115HA000 H chain altered form I51E (antibody, human IgG1, kappa, L234A L235A, N297A, name in Kabat numbering)
heavy: B1 heavy with D35H, I51E
chain: B1 chain
light: B1 light
notes: one-arm antibody
B12: CE115HA000 H chain altered form H35L (antibody, human IgG1, kappa, L234A L235A, N297A, name in Kabat numbering)
heavy: B1 heavy with D35L
chain: B1 chain
light: B1 light
notes: one-arm antibody
B13: CE115HA000 H chain altered form H35S (antibody, human IgG1, kappa, L234A L235A, N297A, name in Kabat numbering)
heavy: B1 heavy with D35S
chain: B1 chain
light: B1 light
notes: one-arm antibody
B14: CE115HA000 H chain altered form K52H (antibody, human IgG1, kappa, L234A L235A, N297A, name in Kabat numbering)
heavy: B1 heavy with D35H, K52H
chain: B1 chain
light: B1 light
notes: one-arm antibody
B15: CE115HA000 H chain altered form K52bD (antibody, human IgG1, kappa, L234A L235A, N297A, name in Kabat numbering)
heavy: B1 heavy with D35H, K54D
chain: B1 chain
light: B1 light
notes: one-arm antibody
B16: CE115HA000 H chain altered form K52D (antibody, human IgG1, kappa, L234A L235A, N297A, name in Kabat numbering)
heavy: B1 heavy with D35H, K52D
chain: B1 chain
light: B1 light
notes: one-arm antibody
B17: CE115HA000 H chain altered form H35Y (antibody, human IgG1, kappa, L234A L235A, N297A, name in Kabat numbering)
heavy: B1 heavy with D35Y
chain: B1 chain
light: B1 light
notes: one-arm antibody
B18: CE115HA000 H chain altered form I51D (antibody, human IgG1, kappa, L234A L235A, N297A, name in Kabat numbering)
heavy: B1 heavy with D35H, I51D
chain: B1 chain
light: B1 light
notes: one-arm antibody
B19: CE115HA000 H chain altered form K52F (antibody, human IgG1, kappa, L234A L235A, N297A, name in Kabat numbering)
heavy: B1 heavy with D35H, K52F
chain: B1 chain
light: B1 light
notes: one-arm antibody
B20: CE115HA000 H chain altered form H35I (antibody, human IgG1, kappa, L234A L235A, N297A, name in Kabat numbering)
heavy: B1 heavy with D35I
chain: B1 chain
light: B1 light
notes: one-arm antibody
B21: CE115HA000 H chain altered form K52R (antibody, human IgG1, kappa, L234A L235A, N297A, name in Kabat numbering)
heavy: B1 heavy with D35H, K52R
chain: B1 chain
light: B1 light
notes: one-arm antibody
B22: CE115HA000 H chain altered form H35K (antibody, human IgG1, kappa, L234A L235A, N297A, name in Kabat numbering)
heavy: B1 heavy with D35K
chain: B1 chain
light: B1 light
notes: one-arm antibody
B23: CE115HA000 H chain altered form K52I (antibody, human IgG1, kappa, L234A L235A, N297A, name in Kabat numbering)
heavy: B1 heavy with D35H, K52I
chain: B1 chain
light: B1 light
notes: one-arm antibody
B24: CE115HA000 H chain altered form K52N (antibody, human IgG1, kappa, L234A L235A, N297A, name in Kabat numbering)
heavy: B1 heavy with D35H, K52N
chain: B1 chain
light: B1 light
notes: one-arm antibody
B25: CE115HA000 H chain altered form H35G (antibody, human IgG1, kappa, L234A L235A, N297A, name in Kabat numbering)
heavy: B1 heavy with D35G
chain: B1 chain
light: B1 light
notes: one-arm antibody
B26: CE115HA000 H chain altered form H35V (antibody, human IgG1, kappa, L234A L235A, N297A, name in Kabat numbering)
heavy: B1 heavy with D35V
chain: B1 chain
light: B1 light
notes: one-arm antibody
B27: CE115HA000 H chain altered form H35M (antibody, human IgG1, kappa, L234A L235A, N297A, name in Kabat numbering)
heavy: B1 heavy with D35M
chain: B1 chain
light: B1 light
notes: one-arm antibody
B28: CE115HA000 H chain altered form H35R (antibody, human IgG1, kappa, L234A L235A, N297A, name in Kabat numbering)
heavy: B1 heavy with D35R
chain: B1 chain
light: B1 light
notes: one-arm antibody
B29: CE115HA000 H chain altered form H35E (antibody, human IgG1, kappa, L234A L235A, N297A, name in Kabat numbering)
heavy: B1 heavy with D35E
chain: B1 chain
light: B1 light
notes: one-arm antibody
B30: CE115HA000 H chain altered form K52Y (antibody, human IgG1, kappa, L234A L235A, N297A, name in Kabat numbering)
heavy: B1 heavy with D35H, K52Y
chain: B1 chain
light: B1 light
notes: one-arm antibody
B31: CE115HA000 H chain altered form H35Q (antibody, human IgG1, kappa, L234A L235A, N297A, name in Kabat numbering)
heavy: B1 heavy with D35Q
chain: B1 chain
light: B1 light
notes: one-arm antibody
B32: CE115HA000 H chain altered form H35F (antibody, human IgG1, kappa, L234A L235A, N297A, name in Kabat numbering)
heavy: B1 heavy with D35F
chain: B1 chain
light: B1 light
notes: one-arm antibody

What follows are binders tested against T1, CD3 epsilon homodimer protein (UniProt P07766 23-126) (assay: SPR Biacore T200, CD3 epsilon homodimer on chip, antibody as analyte;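 note: homodimer amine-coupled to a CM4 sensor chip, run at 25 °C in HBS-EP+ buffer, with kinetic parameters derived in Biacore T200 Evaluation Software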).
T1 construct: also called CD3 (CD3 epsilon)
T1 sequence (P07766 23-126): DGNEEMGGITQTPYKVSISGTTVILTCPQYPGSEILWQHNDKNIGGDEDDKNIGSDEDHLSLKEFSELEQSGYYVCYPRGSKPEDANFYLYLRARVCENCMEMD
Experimental: An appropriate amount of CD3 epsilon homodimer protein was immobilized onto Sensor chip CM4 (GE Healthcare Japan Corp.) by the amine coupling method. Then, the antibody having an appropriate concentration was injected thereto as an analyte and allowed to interact with the CD3 epsilon homodimer protein on the sensor chip. Then, the sensor chip was regenerated by the injection of 10 mmol/L glycine-HCl (pH 1.5). The assay was conducted at 25 degrees C., and HBS-EP+(GE Healthcare Japan Corp.) was used as a running buffer. […] Each parameter was calculated using Biacore T200 Evaluation Software (GE Healthcare Japan Corp.).
Specifically, when the amount of the antibody comprising CE115HA000 bound was defined as X and the amount of the H chain one-amino acid altered form bound was defined as Y, a value of Z (ratio of amounts bound)=Y/X was used.
With B1 the “KD ratio (KD of CE115HA000 / KD of altered form)” value was 69.
B2 was tested, and the “KD ratio (KD of CE115HA000 / KD of altered form)” value was 50.4.
B3 was tested, and the “KD ratio (KD of CE115HA000 / KD of altered form)” value was 0.58.
For B4, the “KD ratio (KD of CE115HA000 / KD of altered form)” value was 2.88.
In the case of B5, the “KD ratio (KD of CE115HA000 / KD of altered form)” value is reported as 0.89.
With B6 the “KD ratio (KD of CE115HA000 / KD of altered form)” value was 4.4.
For B7, the “KD ratio (KD of CE115HA000 / KD of altered form)” value was 19.4.
For B8, the “KD ratio (KD of CE115HA000 / KD of altered form)” value was 2.69.
For B9, the “KD ratio (KD of CE115HA000 / KD of altered form)” value was 0.88.
For B10, the “KD ratio (KD of CE115HA000 / KD of altered form)” value was 92.1.
For B11, the “KD ratio (KD of CE115HA000 / KD of altered form)” value was 0.84.
In the case of B12, the “KD ratio (KD of CE115HA000 / KD of altered form)” value is reported as 4.8.
B13 was tested, and the “KD ratio (KD of CE115HA000 / KD of altered form)” value was 2.93.
B14 was tested, and the “KD ratio (KD of CE115HA000 / KD of altered form)” value was 2.65.
With B15 the “KD ratio (KD of CE115HA000 / KD of altered form)” value was 0.56.
For B16, the “KD ratio (KD of CE115HA000 / KD of altered form)” value was 166.
B17 was tested, and the “KD ratio (KD of CE115HA000 / KD of altered form)” value was 119000.
With B18 the “KD ratio (KD of CE115HA000 / KD of altered form)” value was 6.37.
With B19 the “KD ratio (KD of CE115HA000 / KD of altered form)” value was 4.04.
In the case of B20, the “KD ratio (KD of CE115HA000 / KD of altered form)” value is reported as 7.23.
With B21 the “KD ratio (KD of CE115HA000 / KD of altered form)” value was 0.8.
In the case of B22, the “KD ratio (KD of CE115HA000 / KD of altered form)” value is reported as 14.4.
B23 was tested, and the “KD ratio (KD of CE115HA000 / KD of altered form)” value was 3.54.
For B24, the “KD ratio (KD of CE115HA000 / KD of altered form)” value was 3.29.
With B25 the “KD ratio (KD of CE115HA000 / KD of altered form)” value was 45.8.
In the case of B26, the “KD ratio (KD of CE115HA000 / KD of altered form)” value is reported as 28.1.
B27 was tested, and the “KD ratio (KD of CE115HA000 / KD of altered form)” value was 3.98.
B28 was tested, and the “KD ratio (KD of CE115HA000 / KD of altered form)” value was 15400.
In the case of B29, the “KD ratio (KD of CE115HA000 / KD of altered form)” value is reported as 70.3.
For B30, the “KD ratio (KD of CE115HA000 / KD of altered form)” value was 6.47.
With B31 the “KD ratio (KD of CE115HA000 / KD of altered form)” value was 4.8.
In the case of B32, the “KD ratio (KD of CE115HA000 / KD of altered form)” value is reported as 53.6.
